Experiment: label from the status in PepcDB records

| Sequence | protein production |
| --- | --- |
| MWHYLFLAIYVTMIIGIATVTKKRIKGVSDFLLGGRNVNPWMSAFSYGTAYFSAVIFIGFAGKMGWSFGIPTMWIVVGNTIIGSFLAWQVLGKKTREMTQRLGASTMPSFLEKRYKSKNLESLTAFIIFFFLVPYSASIYKGLNFLFEGFGISPMNAYILMAALTAIYLYFGGFIAATLADFVQGCIMVIGVLLMVFFLSSNPEVGGFSGMLSNLSSIDPILVSPISEASFIPIIGLALLTSIGSWGLPQMIHKFYTIKSEKAAVSAKWVSTAFAFIITFGAAYIGTVSRLFYPDAASKVAAGLTSPDMIVPKIMEIALPDWVAALILVLVISASMSTLASLVLASSSVVSIDFVKGRLKPDLSDKNTMILMRLLCVLFVALSFVLAIVPNSYVLSLMALSWGLVSGCLLAPYFLGLYWKRTTKEGVWAGITSALAIMLGGACYFGVNSVYMPAVGSLAMIAPIFVVMAVSLITKPFESEHIDYIFNKK | failed |
| MKHASHKATTVSRQKFSLAKALFASGKGSHSVRAVRAVQSAGSDAVVLGLDPAIAEKINEIAPQTRRSIREAARAAERRSHILASASLAALVGTAAGALAFSNNEDATNSFVADPATTTTQIKRISDVTAASRSEARTDLSSSSVTAQSTNEGGWGLSNSDSTLDAKLMNRNNANNPVVSALVDADGDAVPAGFNPNHAVGTNSNNYPWGQCTWYAYQRRAELGLPSSGNFGNGGAWAASASALGYWVDNTPRHVGDAVVFAPGQADADGAYGHVAVLEKINADGSIEISESNAKGLGVISTRTFSAAEAGKFQYVHY | failed |
| MSDDPEDRMLGWDESVFRDEHVFEIDWLPETFKHRDTQMETLKYALRPAVRGSRPLNVIARGPPGTGKTTAVQILFDELTAQTDVKTVRVNCQMDSTRYAVFSRLFAEIFDYEPPSSGISFKKLFSQITDKLVEEDEVLVVALDDVNYLFYESEASDTLYSLLRAHEAHSGAKIGVICVSSDLELDTIDALDTRVQSVFRPEEVYFNPYGQAEIADILGERADRGFNEGVVGPTVLDRVAELTEEQGGDLRVGIDLLRRAGMNAEMRASRSVETEDVEAAYDKSKYVHLSRRLRELSDSETALVEVIAAHDGQQAGDIYDAFSEQTDLGYTRYSEIINKLDQLDIIDADYTNVEGRGRSRELTLNYDADAVLERL | failed |
| SFRHTLSVDPSEQLSQDFADPVTDSGYESDEEAAAAATASLSGEEAALWNLVDPQQRLIFVLDGPAAQTLRVKRTGNLERQVVNIHRLPLERAPTVATSLLAATRPQHLVVALRTIEPHQAAAILTSTSYPSLSNVENASQVLVLANDLVQIDDPLLRPLWSDEGTQQNRIQLRWVETGCIGGITAALLAAGCWLRIPVLALLAVEDDDGPSPATLEALLLAAERFGCFTRADWEIRMPNLRQLLAKRQLLYI | not failed |
| MKLENQSETTANIQLNAPELVEANIAEVTSITIEKFLGSFTSVTRLLLNLSPLKNFHKDGLVSGKWNEPKDVPECLLSQLETFVWRRLDWGREEEKEIATYILKNGRRLKKETFTTNPIESEGLNKLKERLKVLNGLDGVQAPLFRKDGVVVGKWNQPKNVPQCLLSHLETFVWTRYRWEREEEKEEATYILKNARLLSKATFSTNIIDLKEFHWFKK | failed |
| MAAFPNLNSGSGLKKLDEHLLTRSYITGYQASKDDITVFTALSKPPTSEFVNVSRWFNHIDALLRISGVSAEGSGVIVEGSSPITEEAVATPPAADSKDTAAEEEDDDDVDLFGEETEEEKKAAEERAASVKASTKKKESGKSSVLMDIKPWDDETDMKKLEEAVRSIQMEGLFWGASKLVPVGYGIKKLHIMCTIVDDLVSIDTMIEEQLTVEPINEYVQSCDIVAFNKI | failed |
| MPGGRRRGFDDQVALQTAMELFWRQGYEGTSITDLTKALGINPPSLYAAFGSKRDLFEKTLDRYMCERTLQLEEAMVRPTAHEAVLDFLTGRVEVFTAPGQPFGCMTVQAGLASGEPHHEIVDLLTAAREQMRQTVLDRFEKALADGDLPAGTDCTALARYVMAAVYGLSVEAASGAPREELTAAAILAAQVVPRAQM | not failed |
| MAETAAGVGRFKTNYAVERKIEPFYKGGKAQLDQTGQHLFCVCGTRVNILEVASGAVLRSLEQEDQEDITAFDLSPDNEVLVTASRALLLAQWAWQEGSVTRLSKAIHTAPVATMAFDPTSTLLATGGCDGAVRVWDIVRHYGTHHFRGSPGVVHLVAFHPDPTRLLLFSSATDAAIRVWSLQDRSCLAVLTAHYSAVTSLAFSADGHTMLSSGRDKICIIWDLQSCQATRTVPVFESVEAAVLLPEEPVSQLGVKSPGLYFLTAGDQGTLRVWEAASGQCVYTQAQPPGPGQELTHCTLAHTAGVVLTATADHNLLLYEARSLRLQKQFAGYSEEVLDVRFLGPEDSHVVVASNSPCLKVFELQTSACQILHGHTDIVLALDVFRKGWLFASCAKDQSVRIWRMNKAGQVMCVAQGSGHTHSVGTVCCSRLKESFLVTGSQDCTVKLWPLPKALLSKNTAPDNGPILLQAQTTQRCHDKDINSVAIAPNDKLLATGSQDRTAKLWALPQCQLLGVFSGHRRGLWCVQFSPMDQVLATASADGTIKLWALQDFSCLKTFEGHDASVLKVAFVSRGTQLLSSGSDGLVKLWTIKNNECVRTLDAHEDKVWGLHCSRLDDHALTGASDSRVILWKDVTEAEQAEEQARQEEQVVRQQELDNLLHEKRYLRALGLAISLDRPHTVLTVIQAIRRDPEACEKLEATMLRLRRDQKEALLRFCVTWNTNSRHCHEAQAVLGVLLRREAPEELLAYEGVRAALEALLPYTERHFQRLSRTLQAAAFLDFLWHNMKLPVPAAAPTPWETHKGALP | failed |
| MSNVIASLEKVLLPFAVKIGKQPHVNAIKNGFIRLMPLTLAGAMFVLINNVFLSFGEGAFFYSMGIRLDASTIETLNGLKGIGGNVYNGTLGIMSLMAPFFIGMALAEERKVDALAAGLLSVAAFMTVTPYSVGEAYAVGANWLGGANIISGIIIGLVVAEMFTFIVRRNWVIKLPDSVPASVSRSFSALIPGFIILSIMGIIAWALSNYGSNFHQIIMDTISTPLASLGSVVGWAYVIFVPLLWFFGIHGSLALTALDSGIMTPWALENISIYQQYGSVDAALEAGKTFHIWAKPMLDSYIFLGGSGATLGLIIAIFLASRRADYRQVAKLALPSGIFQINEPILFGLPIIMNPVMFIPFILVQPILAAITLVAYYLGIIPPITNIAPWTMPTGLGAFFNTNGSVAALLVALFNLAVATLIYLPFVVVANKAQNAIEQEESEEDIANALKF | not failed |
| MSTSAIDPVSFSLYAKDFTRFAQELGASFERYGFAVLSDYDLDQARIDAAVDSAKAFFALPVETKKQYAGVKGGARGYIPFGVETAKGADHYDLKEFWHMGRDLPPGHRFRAHMADNVWPAEIPAFKHDVSWLYNSLDGMGGKVLEAIATYLKLERDFFKPTVQDGNSVLRLLHYPPIPKDATGVRAGAHGDINTITLLLGAEEGGLEVLDRDGQWLPINPPPGCLVINIGDMLERLTNNVLPSTVHRVVNPPPERRGVPRYSTPFFLHFASDYEIKTLQNCVTAENPDRYPESITADEFLQQRLREIKLA | not failed |
| MRLILSQCLANLSVRFLMNRNSYNKIAHLWNVARNGFFGREREYLDAILSVAPIGSTILDLGCGTGRPMAEYIVSRGRCVLGVDQSEEMLRLARQKLPHEQWVLSSIESYEPVEGYHGALLWDSLFHIRRTEHELIVSKVVRGLPSGGRLMLTVGGSAHPEFTDFMYGEEFYYDSNTPQETETFLQRLSCRMVIGEYMNLPDGGRDKGRYAIVAEKILEHHHHHH | failed |
| MTPPERVRRKCPQTNTREPIIQEPDTFEPEATRRDAGATESSRANRGWWDRNADDYQVEHGTFLGDDRFVWCPEGLDEVEAELLGPAEDLKGKDVLEIGAGAAQCSRWLAGQGARPVALDLSHRQLQHALRIGGDVPLVEADAGALPFADASFDLACSAYGALPFVADPVRVLREVHRVLRPGGRFVFSVTHPIRWAFPDEPGPEGLSVSASYFDRTPYVEQDEEGGAVYVEHHRTIGDRVRDVVAGGFRLLDVVEPEWPAWNTQEWGGWSPLRGNLIPGTAIFVCVRD | failed |
| MTQRRAMLILHGKQSLNEDVRDAVADKRKQGWELDVRLTWEAGDAQRLVNEALAAGHRHIVAGGGDGTLRDIAEALALAATKASLTILPLGTANDFARAAGVPLDVSKALQLMDVAPRAVDLGEVGGKLFLNMATGGFGSQVTANTSEDLKKVLGGAAYLFTGLTRFSELHAAHGELTGPDFHWRGDLLALGIGNGRQAGGGHELCPTALADDGLLDISILPAPQEVVGTLRSLLEGGLGIDNMFIRARLPWVELKSAQGLDINLDGEPLSGEDLRFVARPGALQVHLPANSPVLGSTPLLNRPD | not failed |
